In publication PMC2814163 (Biochemistry, 2010):
Read-outs that look alike come from different tables or passages of the source.

T1: human β-glucuronidase (human, UniProt P08236 23-651, mannose 6-phosphate on its glycans (Man-6-P-containing lysosomal enzyme; nonphosphorylated enzyme removed))
T1 sequence (looked up): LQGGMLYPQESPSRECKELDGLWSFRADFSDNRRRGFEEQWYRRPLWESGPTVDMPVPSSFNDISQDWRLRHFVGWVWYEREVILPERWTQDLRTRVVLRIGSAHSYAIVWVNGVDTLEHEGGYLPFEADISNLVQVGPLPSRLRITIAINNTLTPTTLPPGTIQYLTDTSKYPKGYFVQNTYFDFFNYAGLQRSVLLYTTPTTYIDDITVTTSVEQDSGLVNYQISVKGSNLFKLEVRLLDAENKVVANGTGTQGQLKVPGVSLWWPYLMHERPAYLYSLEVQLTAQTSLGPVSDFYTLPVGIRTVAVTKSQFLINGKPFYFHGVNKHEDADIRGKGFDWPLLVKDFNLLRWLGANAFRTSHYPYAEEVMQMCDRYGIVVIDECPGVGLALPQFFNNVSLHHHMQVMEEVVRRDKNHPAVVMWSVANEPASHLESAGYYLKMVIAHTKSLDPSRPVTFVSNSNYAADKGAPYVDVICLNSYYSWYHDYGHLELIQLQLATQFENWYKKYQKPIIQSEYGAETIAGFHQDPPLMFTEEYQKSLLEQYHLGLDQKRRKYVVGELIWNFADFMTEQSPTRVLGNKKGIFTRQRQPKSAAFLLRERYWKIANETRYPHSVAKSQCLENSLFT

B1: Dom1-3His (extracytoplasmic domains 1-3 of the bovine CI-MPR, residues 1-432, C-terminal His6) (domain or fragment, UniProt P08169 45-476, looked up)
chain: AAGTQGAEFPELCSYTWEAVDTKNNMLYKINICGNMGVAQCGPSSAVCMHDLKTDSFHSVGDSLLKTASRSLLEFNTTVNCKQQNHKIQSSITFLCGKTLGTPEFVTATDCVHYFEWRTTAACKKNIFKANKEVPCYAFDRELKKHDLNPLIKTSGAYLVDDSDPDTSLFINVCRDIEVLRASSPQVRVCPTGAAACLVRGDRAFDVGRPQEGLKLVSNDRLVLSYVKEGAGQPDFCDGHSPAVTITFVCPSERREGTIPKLTAKSNCRFEIEWVTEYACHRDYLESRSCSLSSAQHDVAVDLQPLSRVEASDSLFYTSEADEYTYYLSICGGSQAPICNKKDAAVCQVKKADSTQVKVAGRPQNLTLRYSDGDLTLIYFGGEECSSGFQRMSVINFECNQTAGNNGRGAPVFTGEVDCTYFFTWDTKYACV

What was measured:
Assay in all cases: SPR
[1] = target: B1
human prothrombin = human prothrombin (human, plasma-purified zymogen; gamma-carboxyglutamate in Gla domain, N-glycosylated, disulfides (by convention, not given))
human β-glucuronidase [2] = target: T1, human β-glucuronidase
human β-glucuronidase [3] = target: T1, human β-glucuronidase; remark: listed apart in the source

| Kd (human β-glucuronidase [3]) | Binder | also measured |
| --- | --- | --- |
|  | bovine prothrombin (natural protein, plasma-purified zymogen; gamma-carboxyglutamate in Gla domain, N-glycosylated, disulfides (by convention, not given)) not shown | Kd [1]: > 2500 nM |
|  | B1 | Kd (human prothrombin): > 2500 nM; Kd (human β-glucuronidase [2]): 10 ± 2 nM |
| 18 ± 2 nM | Dom1-3HisK215A (domain or fragment, bovine, UniProt P08169 45-476, looked up) AAGTQGAEFPELCSYTWEAVDTKNNMLYKINICGNMGVAQCGPSSAVCMHDLKTDSFHSVGDSLLKTASRSLLEFNTTVNCKQQNHKIQSSITFLCGKTLGTPEFVTATDCVHYFEWRTTAACKKNIFKANKEVPCYAFDRELKKHDLNPLIKTSGAYLVDDSDPDTSLFINVCRDIEVLRASSPQVRVCPTGAAACLVRGDRAFDVGRPQEGLALVSNDRLVLSYVKEGAGQPDFCDGHSPAVTITFVCPSERREGTIPKLTAKSNCRFEIEWVTEYACHRDYLESRSCSLSSAQHDVAVDLQPLSRVEASDSLFYTSEADEYTYYLSICGGSQAPICNKKDAAVCQVKKADSTQVKVAGRPQNLTLRYSDGDLTLIYFGGEECSSGFQRMSVINFECNQTAGNNGRGAPVFTGEVDCTYFFTWDTKYACV |  |
| 17 ± 1 nM | Dom1-3HisK98A (domain or fragment, bovine, UniProt P08169 45-476, looked up) AAGTQGAEFPELCSYTWEAVDTKNNMLYKINICGNMGVAQCGPSSAVCMHDLKTDSFHSVGDSLLKTASRSLLEFNTTVNCKQQNHKIQSSITFLCGATLGTPEFVTATDCVHYFEWRTTAACKKNIFKANKEVPCYAFDRELKKHDLNPLIKTSGAYLVDDSDPDTSLFINVCRDIEVLRASSPQVRVCPTGAAACLVRGDRAFDVGRPQEGLKLVSNDRLVLSYVKEGAGQPDFCDGHSPAVTITFVCPSERREGTIPKLTAKSNCRFEIEWVTEYACHRDYLESRSCSLSSAQHDVAVDLQPLSRVEASDSLFYTSEADEYTYYLSICGGSQAPICNKKDAAVCQVKKADSTQVKVAGRPQNLTLRYSDGDLTLIYFGGEECSSGFQRMSVINFECNQTAGNNGRGAPVFTGEVDCTYFFTWDTKYACV |  |
| 17 ± 2 nM | Dom1-3HisK82A (domain or fragment, bovine, UniProt P08169 45-476, looked up) AAGTQGAEFPELCSYTWEAVDTKNNMLYKINICGNMGVAQCGPSSAVCMHDLKTDSFHSVGDSLLKTASRSLLEFNTTVNCAQQNHKIQSSITFLCGKTLGTPEFVTATDCVHYFEWRTTAACKKNIFKANKEVPCYAFDRELKKHDLNPLIKTSGAYLVDDSDPDTSLFINVCRDIEVLRASSPQVRVCPTGAAACLVRGDRAFDVGRPQEGLKLVSNDRLVLSYVKEGAGQPDFCDGHSPAVTITFVCPSERREGTIPKLTAKSNCRFEIEWVTEYACHRDYLESRSCSLSSAQHDVAVDLQPLSRVEASDSLFYTSEADEYTYYLSICGGSQAPICNKKDAAVCQVKKADSTQVKVAGRPQNLTLRYSDGDLTLIYFGGEECSSGFQRMSVINFECNQTAGNNGRGAPVFTGEVDCTYFFTWDTKYACV |  |
| 12 ± 1 nM | Dom1-3HisR118A (domain or fragment, bovine, UniProt P08169 45-476, looked up) AAGTQGAEFPELCSYTWEAVDTKNNMLYKINICGNMGVAQCGPSSAVCMHDLKTDSFHSVGDSLLKTASRSLLEFNTTVNCKQQNHKIQSSITFLCGKTLGTPEFVTATDCVHYFEWATTAACKKNIFKANKEVPCYAFDRELKKHDLNPLIKTSGAYLVDDSDPDTSLFINVCRDIEVLRASSPQVRVCPTGAAACLVRGDRAFDVGRPQEGLKLVSNDRLVLSYVKEGAGQPDFCDGHSPAVTITFVCPSERREGTIPKLTAKSNCRFEIEWVTEYACHRDYLESRSCSLSSAQHDVAVDLQPLSRVEASDSLFYTSEADEYTYYLSICGGSQAPICNKKDAAVCQVKKADSTQVKVAGRPQNLTLRYSDGDLTLIYFGGEECSSGFQRMSVINFECNQTAGNNGRGAPVFTGEVDCTYFFTWDTKYACV |  |
| 17 ± 2 nM | Dom1-3HisK53A (domain or fragment, bovine, UniProt P08169 45-476, looked up) AAGTQGAEFPELCSYTWEAVDTKNNMLYKINICGNMGVAQCGPSSAVCMHDLATDSFHSVGDSLLKTASRSLLEFNTTVNCKQQNHKIQSSITFLCGKTLGTPEFVTATDCVHYFEWRTTAACKKNIFKANKEVPCYAFDRELKKHDLNPLIKTSGAYLVDDSDPDTSLFINVCRDIEVLRASSPQVRVCPTGAAACLVRGDRAFDVGRPQEGLKLVSNDRLVLSYVKEGAGQPDFCDGHSPAVTITFVCPSERREGTIPKLTAKSNCRFEIEWVTEYACHRDYLESRSCSLSSAQHDVAVDLQPLSRVEASDSLFYTSEADEYTYYLSICGGSQAPICNKKDAAVCQVKKADSTQVKVAGRPQNLTLRYSDGDLTLIYFGGEECSSGFQRMSVINFECNQTAGNNGRGAPVFTGEVDCTYFFTWDTKYACV |  |
| 35 ± 4 nM | Dom1-3HisK132A (domain or fragment, bovine, UniProt P08169 45-476, looked up) AAGTQGAEFPELCSYTWEAVDTKNNMLYKINICGNMGVAQCGPSSAVCMHDLKTDSFHSVGDSLLKTASRSLLEFNTTVNCKQQNHKIQSSITFLCGKTLGTPEFVTATDCVHYFEWRTTAACKKNIFKANAEVPCYAFDRELKKHDLNPLIKTSGAYLVDDSDPDTSLFINVCRDIEVLRASSPQVRVCPTGAAACLVRGDRAFDVGRPQEGLKLVSNDRLVLSYVKEGAGQPDFCDGHSPAVTITFVCPSERREGTIPKLTAKSNCRFEIEWVTEYACHRDYLESRSCSLSSAQHDVAVDLQPLSRVEASDSLFYTSEADEYTYYLSICGGSQAPICNKKDAAVCQVKKADSTQVKVAGRPQNLTLRYSDGDLTLIYFGGEECSSGFQRMSVINFECNQTAGNNGRGAPVFTGEVDCTYFFTWDTKYACV |  |
| 14 ± 1 nM | Dom1-3HisK23A (domain or fragment, bovine, UniProt P08169 45-476, looked up) AAGTQGAEFPELCSYTWEAVDTANNMLYKINICGNMGVAQCGPSSAVCMHDLKTDSFHSVGDSLLKTASRSLLEFNTTVNCKQQNHKIQSSITFLCGKTLGTPEFVTATDCVHYFEWRTTAACKKNIFKANKEVPCYAFDRELKKHDLNPLIKTSGAYLVDDSDPDTSLFINVCRDIEVLRASSPQVRVCPTGAAACLVRGDRAFDVGRPQEGLKLVSNDRLVLSYVKEGAGQPDFCDGHSPAVTITFVCPSERREGTIPKLTAKSNCRFEIEWVTEYACHRDYLESRSCSLSSAQHDVAVDLQPLSRVEASDSLFYTSEADEYTYYLSICGGSQAPICNKKDAAVCQVKKADSTQVKVAGRPQNLTLRYSDGDLTLIYFGGEECSSGFQRMSVINFECNQTAGNNGRGAPVFTGEVDCTYFFTWDTKYACV |  |
| 26 ± 2 nM | Dom1-3HisK125A (domain or fragment, bovine, UniProt P08169 45-476, looked up) AAGTQGAEFPELCSYTWEAVDTKNNMLYKINICGNMGVAQCGPSSAVCMHDLKTDSFHSVGDSLLKTASRSLLEFNTTVNCKQQNHKIQSSITFLCGKTLGTPEFVTATDCVHYFEWRTTAACKANIFKANKEVPCYAFDRELKKHDLNPLIKTSGAYLVDDSDPDTSLFINVCRDIEVLRASSPQVRVCPTGAAACLVRGDRAFDVGRPQEGLKLVSNDRLVLSYVKEGAGQPDFCDGHSPAVTITFVCPSERREGTIPKLTAKSNCRFEIEWVTEYACHRDYLESRSCSLSSAQHDVAVDLQPLSRVEASDSLFYTSEADEYTYYLSICGGSQAPICNKKDAAVCQVKKADSTQVKVAGRPQNLTLRYSDGDLTLIYFGGEECSSGFQRMSVINFECNQTAGNNGRGAPVFTGEVDCTYFFTWDTKYACV |  |
